Measured values published in the nanobody polyreactivity screen of Harvey et al. (2022).

Assay: yeast display, Sf9 membrane polyspecificity reagent, FACS + sequencing; frameworks hold sequencing errors
In short: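 Using colony PCR, genes from sorted yeast display clones were amplified, then sequenced on MiSeq at 2 × 250 and filtered by CDR length. The clones had been stained with 10% biotinylated, detergent-solubilized Sf9 membrane reagent for 1 hour at 4 °C and sorted by FACS into low and high (top ~1%) gates on anti-HA and streptavidin fluorescence. Polyreactivity labels come from the gate of origin.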

Sequence | polyreactivity (PSR sort gate)
QVQLVESGGGLVQAGGSLRISCAASGSTLQYYAMGWYRQAPGKERELVAAISWRGARTYYADSVKGRFTISRDNAKNTVYLQMNSLKPQDTAVYYCAAVYGSRGYAGNYYWGHGTQVTVSS | high polyreactivity
QVQLVESGGGLVQAGGSLRISCAASGSTSSRNAMGWYRQAPGKERELVAAITSGTRTYYADSVKGRFTISRDNAKNSVYLQRNSLKPEDTAVYYCARGRVSRYTKTDYDYWGQGSQVTVSS | high polyreactivity
QVQLVESGGGLVQAGGSLRISCAASGYIYGYNAMGWYRQAPGIAREFVAAIRFSGGSTYYADSVKGRFTISRDNAKNTVYLQMNSLKPEDTAVYYCAKRCYAHLIPIAYEYWGQGTQVTVSS | low polyreactivity
QVQLVESGGGLVQAGGSLRISCAASGYTFASYTMGWYRQAPGKERELVATISRGGGRTYYADSVKGRFTISRDNAKNTVYLQLNSLKPEDTAVYYCARPSTFFTGYRQAHFDYWGQGTQVTVSS | high polyreactivity
QVQLVESGGGLVQAGGSLRISCAASGYTFFNYAMGWSRQAPGKERELVAAITWSGGSRYYADSVKGRFTISRVNAKNTVYLQMNSLKPEDTAVYYCAADAITPRDPYVTEKLDYWGQGTQVTVSS | low polyreactivity
QVQLVESGGGLVQAGGSLRISCAASVSTFGRYAMGWYRQAPGKERELVAAISRGTTTNYADSVKGRFTISRDNAKNTVYLQMNSLKPEDTAVYYCAADQPSKRYYYWGQGTQVTVSS | low polyreactivity
QVQLVESGGGLVQAGGSLRISCAAYGRIFWWYAMGWYRQAPGKERELVASIRYGGGSTYYADSVKGRFTISRDNAKNTVYLQMNSLKPEDTAVYYCAARFKRHGRSDYWGQGTQVTVSS | high polyreactivity
QVQLVESGGGLVQAGGSLRISCADCGSIFEVNAMGWYRPAPGTERELVAAISSGDRTNYADSVKGRFTISRDNAKNTVYLQMNSLKPEDTAVYYCNKGAAWRPFFGPYYNYEYWGQGTQVTVSS | high polyreactivity
QVQLVESGGGLVQAGGSLRISCDASGRTFYYYAMGWYRQAPGKERELVASITITDSTNYADSVKGRFTISRDNAKNTVYLQMNSLKPEDTAVYYCAKRGWGTSFYLSDYWGQGTEVTVSS | low polyreactivity
QVQLVESGGGLVQAGGSLRISCDASGSTFYPYAMGWYRQAPGKERELVAAISSGGSTSYADSVKGRFTISRDNAKNTVYLQMNSLKPEDTAVYYCNASSPGAVPVYDYDYWGQGTQVTVSS | low polyreactivity
QVQLVESGGGLVQAGGSLRISCGASGSTFAQNVMGWDRQAPGKERELVAAITSSGSTNYADSVKGRFTISRDNAKNTVYLQMNSLKPEDSAVYYCAKDVLAPYSRHDYWGQGTQVTVSS | low polyreactivity
QVQLVESGGGLVQAGGSLRISSAASGFNSPSYAMGWYRQAPGKERELVAAISSGDSTNYADSVKGRFTISRDNAKNTVYLLMNSLKPEDTAVYYCAARYREQYDYWGQGTQVTVSS | low polyreactivity
QVQLVESGGGLVQAGGSLRISSAASGLTFYRYAIGWYRQAPGKERELVAAIRSNVVTTYYADSVKGRFTISRDNAKNTVYLKMNSLKPEDTAVYYCAARFGRSAPPGYDYWGQGTQVTVSS | high polyreactivity
QVQLVESGGGLVQAGGSLRISSAASGSTFSRYAMGWYRQAPGKERELVAAISWRGGRTYYADSVKGRFTISRDNAKNTVYLQMNSLKPEDTAVYYCNAVSSFTSPRYDYWGQGTQVTVSS | high polyreactivity
QVQLVESGGGLVQAGGSLRISWAASGSTFGYYAMGWYRQAPGKDREWVAAISLGGGSTYYADSVKGRFTISRDNAKNTVYLQMNSLKPDDTAVYYCAARPYVRVKWKFNYWGQGTQVTVSS | low polyreactivity
QVQLVESGGGLVQAGGSLRITCAASGSIFTGNAMGWYRQAPGKERELVAAISSSGGSTYYADSVKGRFTLSRDNAKNTVYLQMNSMKPEDTAVYYCAAYNNFLQYDYWGQGTQVTVSS | low polyreactivity
QVQLVESGGGLVQAGGSLRITCAASGSTYYHNVMGRYRPAPGKERELVARISSGGGSTSYADSVKGRFTISRDNAKNTVYLQMNSLKPEETAVYYCNKYYTKRGYFLPWYHYGSWGQGTQVTLSS | high polyreactivity
QVQLVESGGGLVQAGGSLRLAVLPPELTSTLNDMGWYRQAPGKERELVAAITRGGSTNYADSVKGRFTISRDNAKYTFYLQMNSMKPEDSAVYYCAAPYAGLRDGGDYWGQGTQVTVSS | low polyreactivity
QVQLVESGGGLVQAGGSLRLCCAASGITFNYYTMGWYRQAAGNERELVAAIRSGGRTYYADSVKGRFTISRDNAKNTVYLQMNSLKPEDTAVYYGAALAVTYPYDYWGQGTQVTVSS | high polyreactivity
QVQLVESGGGLVQAGGSLRLCCAASGSTFGYYAMGWYRQAPGKDRELVAVITWNGGGTYYADSVKGRFTISRDNAKNTVYLQMNSLKPEDTAVYDCAADASLYTDEYDYWGQGTQVTVSS | low polyreactivity
QVQLVESGGGLVQAGGSLRLCCAASGSTFYYYAMGWYRQAPGKVRELVASITTGGGSTYYADSVKGRFTISRDNAKNTVYLQMNSLKPEDTAVSYCAAALAYYYWWYDYWGQGTQVTASS | low polyreactivity
QVQLVESGGGLVQAGGSLRLCCAATGSIFPGNAMGWYRQAPGKEMELVATNTWSGGSTYYADSVKGRFTISRDNAKNTVYFQMKSLKPVDTAVYYCKADSSWFYQWKDYGMYDYWGQGTQVTVSS | low polyreactivity

Sequence | polyreactivity (PSR sort gate)
QVQLVESGGGLVQAGGSLRLICAAAGFIFKRYAMGWYRQAPGKERELVAAITSNGGRTYYADSVKGRFTISRDNAKNTVYFQMNSLKPEDTEVYYCARVSQYYEQDDYWGQGTQVTVSS | high polyreactivity
QVQLVESGGGLVQAGGSLRLICAASASIFQPYAMGWYRQAPGKERELVAAISKSGGNTYYADSVKGRFSSSRDYAKNTVYLQMNRLKPEVSAVYYCAALDYWGQGTQVTLSS | low polyreactivity
QVQLVESGGGLVQAGGSLRLICAASGFAFSYYAMGWYRQAPGKEREFVASIDWSGGSTYYADSVKGRFTISRDNEKNTVYLQMNSLKPEDTAVYYCAAELDYFPGYDYWGQGTQVTVSS | low polyreactivity
QVQLVESGGGLVQAGGSLRLICAASGFIFASNAMGWYRQAPGTERELVASITRGGTTKYADSVKGRFTISRDNAKNTVYLQMNSLKPEDTAVYYCAKRYVRFPWRMDYWGQGTQVTVSS | high polyreactivity
QVQLVESGGGLVQAGGSLRLICAASGFIFDAYAMGWYRQAPGKERELVAAISRTGGSTYYADSVKGRFTISRDNAKNTVYLQMNSLKPEDTAVYYCTAYKSHDDYYWGQGTQITVSS | high polyreactivity
QVQLVESGGGLVQAGGSLRLICAASGFIFDPYAMGSYRQATGKVRELVAAISSGGSTYYADSVKGRFTISRDNAKNTVYLQMNSLKPEDNAVYYCAKVYVRYDSSTQTYLNTYGYWGQGTQVTVSS | high polyreactivity
QVQLVESGGGLVQAGGSLRLICAASGFIFFINDMGWYRQAPGKEREWVAAISWSGGSTYYADSVKGRFTISRDNEKNNFYIQMNSLKAEETAGYYFKTDVPTAQYDYWGQGTQVTVSS | low polyreactivity
QVQLVESGGGLVQAGGSLRLICAASGFIFGHNAMGWYRQAPGKERELVAAITWRGRTYYADSVKGRFTISRDNAKNCVYLQMNSMKPEDTSVFSCNAYVRYGYDYWGQGTQVTVSS | high polyreactivity
QVQLVESGGGLVQAGGSLRLICAASGFIFNSNAMGWYRQAPGKERELVAAISGRGGSTYYADSVKGRVTISRDNAKNTVYLQMNSLKPEDTAVYYCAAKLRPRYYVSGYDYWGQGTQVTVSS | high polyreactivity
QVQLVESGGGLVQAGGSLRLICAASGFIFPHNTMGWYRQAPGKERELVAAISSGGSTNYADSVKGRFTLSRDNAKNTVYLQMNSLKPEDTAVYYCATVSVRWPSNDHVRYDYWGQGTQVTVSS | low polyreactivity
QVQLVESGGGLVQAGGSLRLICAASGFIFRTNAMGWYRQAPGKQRELVAAISRSGNTYYADSVKGRFTISRDNAKNTVYLQMNSLKPEDTAVYYCAAQSVRWYSTFKYYYWGQGTQVTVSS | high polyreactivity
QVQLVESGGGLVQAGGSLRLICAASGFIFTSYTMGWYRQAPGKERELVAAISRSGGRTYYADSVKGRFTISRDNAKNTVYLQMNRLKPVDTAVYYCNAGYPASYYYYGFDYWGQGTQVTVSS | high polyreactivity
QVQLVESGGGLVQAGGSLRLICAASGFIFWRYAMGWYRQAPGKERELVAAISRTSTSTYYADSVKGRFTISRDNAKNSVYLQMNSLKPEDTAVYYCAATFSTFYGYGYWGQGSQVTVSS | high polyreactivity
QVQLVESGGGLVQAGGSLRLICAASGFIFWSNAMGWYRQAPGKEMELVAAITWNGGDTYYADSVKGRFTISRDNAKNTVYLQMNSLKPEDTAVYYCAAVHSRRARYDYWGQGTQVTVSS | low polyreactivity
QVQLVESGGGLVQAGGSLRLICAASGFILNSYAMGWYRQAPGKERELVAAITRSGGNTFYADSVKGRFKISRDNAKNTVYLQLNSLKPDDTAVYYCNAYFTYWSQLYYWGQGTQVTVSS | high polyreactivity
QVQLVESGGGLVQAGGSLRLICAASGFIMRPYTMGWYRQAPGKERELVAAITSGGRTYYADSVKGRFTISRDNAKNTVYLQMNSLKPEDTAVYYCAALTYYRTVRTFSYPYDYWGQGTQVTVSS | high polyreactivity
QVQLVESGGGLVQAGGSLRLICAASGFTFGYYPMGWYRQAPGKERELVAAINWSGVNTNYADSVKGRFTISRDNAKNTVYLQMNSVKPEDTAVYYCAADAGYDGYGYWGQGTQVTVSS | low polyreactivity
QVQLVESGGGLVQAGGSLRLICAASGFTFNWYAMGWYRQAPGKERELVATISSTGSTYYADSVKGRFTISRDNAKNTVYLQMNSQKPEDTGVYYCAVRRPPYSYYWDFDSWGQGTPVTVSS | high polyreactivity
QVQLVESGGGLVQAGGSLRLICAASGFTFRAYAMGWYRQAPGKERELVAAISTVGGSTYYADSVKGRFTISRDNAKNTVYLQMNSLKPEETAVYYCAARRRTGREYGYWGKGTQVTVSS | high polyreactivity
QVQLVESGGGLVQAGGSLRLICAASGFTFRGYAMGWYRQAPGKERELVAAIRRGVITNYADSVNGRFTISRDNAKNTVYLQMNSLKPEDTAVYYCAAGNITPYRYYHGYYQSIYDYWGQGTIVTVSS | low polyreactivity
QVQLVESGGGLVQAGGSLRLICAASGFTFSWYVMGWYRQAPGKERELVATITNRGGSTYYADSVKGRFTISRDTAKNTVYLQMNSLKPEDTAVYYCAARKKGSRVGYDYCGQGTQVTVSS | high polyreactivity
